The test addresses NANP 5.5-mer peptide, NP(NANP)5 (Plasmodium falciparum). Briefly: SPR. Background: Surface plasmon resonance follows binding to a sensor surface in real time, without labels.

Data on one substance can be found in paper doi:10.1101/798769.

On to “mAb CIS43 (recombinant human IgG1, kappa) (antibody)”, for which the fold lower affinity (reference not clear: its own NPDP affinity or mAb 4493) was determined as 100 fold.
